The text below walks through data of US6379943, “High-efficiency Cre/loxp based system for construction of adenovirus vectors” (Merck & Co., Inc.).

For data set [1], the target named is Cre recombinase (Bacteriophage P1?) (UniProt P06956). Briefly: cell_activity. The note with it: plasmids lacking lox; 5 plaques in 293 without Cre, homologous recombination background.
A further data set has as its target Cre recombinase (UniProt P06956 P06956:1-343). Kind of data set: cell_activity; pCA36lox x pBHG10lox cotransfection; 168 plaques in 293Cre4 vs 4 in 293 (12 dishes each). The conditions noted are these: tags: stably expressed in 293Cre4 cells; chain copies: 4; BamHI/BglII overhangs. From the text: The efficiency of Cre/lox mediated recombination was compared with that of homologous recombination, by measuring the numbers of virus plaques obtained from cotransfections of 293 cells versus the numbers obtained following cotransfections of 293Cre4 cells (see, for example, U.S. patent application Ser. No. 08/473,168, filed Jun. 7, 1995; see also WO96/40955, hereby incorporated by reference).
Coupled with the fact that the only infectious virus present in the transfected cell preparation are recombinants, rather than contaminating starting virus, the efficiency, cleanliness and convenience of this method in comparison to known methods represent significant advances in the art. Thus, with this new method it will be possible to reduce the amount of plasmid DNA used in cotransfections and reduce the number of dishes of 293 (293Cre) cells needed in cotransfections for rescue of viral vectors. It will also aid in the rescue of constructs which, for unknown reasons, might be otherwise difficult to rescue (e.g. rescue of vectors containing large foreign DNA inserts in E1 is often inefficient for reasons that are not known).

Sequence of Cre recombinase (Bacteriophage P1?) (P06956 whole entry): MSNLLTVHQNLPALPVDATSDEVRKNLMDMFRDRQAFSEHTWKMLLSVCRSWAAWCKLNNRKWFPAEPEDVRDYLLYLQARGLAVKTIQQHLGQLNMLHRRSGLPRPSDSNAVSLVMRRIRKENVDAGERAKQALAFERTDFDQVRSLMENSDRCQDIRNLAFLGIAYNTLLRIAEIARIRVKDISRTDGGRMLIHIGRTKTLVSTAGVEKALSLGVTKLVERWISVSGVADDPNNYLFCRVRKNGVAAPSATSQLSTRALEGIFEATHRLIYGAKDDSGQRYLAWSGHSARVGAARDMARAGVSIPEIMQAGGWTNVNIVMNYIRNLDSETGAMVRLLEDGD
Sequence of Cre recombinase (P06956 whole entry, one chain of several): as the sequence (P06956 whole entry) above

With no-lox plasmid pair pCA36:pBHG10, in data set [1], the activity (plaques (12 dishes)) came to 7.

B1: loxP linker AB3233/AB3234 (dsDNA)
DNA 1: GATCCAATAACTTCGTATAGCATACATTATACGAAGTTATAAGTACTGAATTCG
DNA 2: GATCCGAATTCAGTACTTATAACTTCGTATAATGTATGCTATACGAAGTTATTG
Take B1: the activity in the data set with Cre recombinase was 35 fold over homologous recombination.
